Test results reported in patent US20120071629A1, “APPOPTOSIN AND USES THEREOF FOR TREATING NEURODEGENERATIVE DISEASE AND CANCER” (Tsinghua University, priority 2006, published 2012).

B1: 118-304AA: deletion mutant of myc-168, amino acids 118-304 (protein)
chain: GHPPTALESVMLGVGSRSVAGVCMSPITVIKTRYESGKYGYESIYAALRSIYHSEGHRGLFSGLTATLLRDAPFSGIYLMFYNQTKNIVPHDQVDATLIPITNFSCGIFAGILASLVTQPAGVIKTHMQLYPLKFQWIGQAVTLIFKDYGLRGFFQGGIPRALRRTLMAAMAWTVYEEMMAKMGLKS
modifications: left off: small tags and cut ends
B2: 168: Appoptosin polypeptide; human amino acid sequence SEQ ID NO:2; expressed in cells by transfection (protein)
chain: MIQNSRPSLLQPQDVGDTVETLMLHPVIKAFLCGSISGTCSTLLFQPLDLLKTRLQTLQPSDHGSRRVGMLAVLLKVVRTESLLGLWKGMSPSIVRCVPGVGIYFGTLYSLKQYFLRGHPPTALESVMLGVGSRSVAGVCMSPITVIKTRYESGKYGYESIYAALRSIYHSEGHRGLFSGLTATLLRDAPFSGIYLMFYNQTKNIVPHDQVDATLIPITNFSCGIFAGILASLVTQPAGVIKTHMQLYPLKFQWIGQAVTLIFKDYGLRGFFQGGIPRALRRTLMAAMAWTVYEEMMAKMGLKS
modifications: Description of Artficial Sequence note = synthetic construct
notes: Appoptosin polypeptide; expressed in cells by transfection

What was measured:
N2a cells = assay: BH3I- and staurosporine-induced caspase 3 cleavage/activation; type: cell-based
Description: N2a cells were first subjected to downregulation of 168 by RNAi, and were then treated with apoptotic reagents BH3I and staurosporine. […] In addition, 168 is subjected to cleavage under apoptotic treatments (indicated by *).

APP = target: T1, APP (Homo sapiens, UniProt P05067); assay: Anti-APP (369) IP and anti-myc Western blot in co-transfected 293T cells; type: binding; details: myc-168 or deletion mutants co-transfected with APP into 293T cells
T1 construct: expressed in transfected cells; host or cells: 293T cells
From the text: Protein expressions are shown in the middle and lower panels.
Deletion mutants of myc-168 and APP were co-transfected into 293T cells and cell lysates subjected to anti-APP (369) IP and anti-myc WB to detect 168-APP interaction (upper panel).

293T cells = assay: Cytochrome c release from mitochondria, immunoblotting of mitochondria and cytosol; type: cell-based; details: 293T cells transfected with 168
From the text: Mitochrondia and cytosol were isolated from 293T cells transfected with 168 and subjected to immunoblotting with different antibodies: Tubulin serves as a cytosol marker and CoxIV as a mitochondrial marker.

Notch = assay: Notch/NICD conversion, Western blot; type: cell-based; details: overexpression of 168; NotchΔE-myc transfected N2a cells; ratios of NICD to Notch
From the text: (§1) N2a cells stably expressing human APP695 were transfected with NotchΔE-myc(Notch lacking its ectodomain and carrying a myc tag at its C-terminus) for 1 day. Cells were split equally and transfected with 168 with different dosage for 2 days. Conditional media were collected for sAPPα and secretary Aβ assays. Cells were lysed in 6% SDS and assayed for Notch/NICD conversion and APP metabolism. 168/FLJ20551 and Notch/NICD were detected using myc antibody 9E10. APP AICD was detected using APP C-terminus antibody 369. APP βCTFs, intracellular Aβ, and secretary Aβ in conditional media were immunoprecipitated using antibody 4G8 and detected using antibody 6E10. Soluble APPα were detected using 6E10. α-tubulin was used as control.

[1] = system: N2a cells stably expressing human APP695; assay: Aβ generation and APP metabolism, IP and Western blot; type: cell-based
From the text: as §1

239T cells = assay: Apoptosis by annexin V/PI double staining after 168 expression; type: cell-based
mouse fibroblast cells = assay: 168-mediated apoptosis in APP WT and APP/APLP2 DKO cells, annexin V/PI double staining; type: cell-based; details: mouse fibroblast cells transfected with 168
From the text: APP wild type (WT) and APP/APLP2 double knockout (DKO) mouse fibroblast cells were transfected with control (vector) or 168.

[2] = system: N2a cells stably expressing human APP Swedish mutations; assay: Aβ40 generation, IP and urea gel; type: cell-based; details: overexpression of 168, 2 days, secreted Aβ in conditional media
Description: N2a cells stably expressing human APP Swedish mutations were transfected with 168 for 2 days. Secretary Aβ in conditional media were immunoprecipitated using antibody 4G8 and detected using antibody 6E10. The samples were analyzed using Urea gel, which can differentiate variant Aβ species.

[3] = system: mitochondrial membrane potential; assay: Mitochondrial membrane potential after 168 expression; type: cell-based
From the text: MCCP: an ionophore to disrupt proton gradient used as a positive control to decrease mitochondrial membrane potential.

APP-AICD(C99) = target: T2, APP-AICD(C99) (Homo sapiens, UniProt P05067); assay: Anti-myc IP and anti-HA Western blot in co-transfected 293T cells; type: binding
T2 construct: Deletion mutants of HA-168 and myc-tagged APP-AICD(C99) were co-transfected into 293T cells; myc; expressed in transfected cells; host or cells: 293T cells
From the text: IP-WB the minimal domain of 168 to interact with AICD is 118-264AA. Deletion mutants of HA-168 and myc-tagged APP-AICD(C99) were co-transfected into 293T cells and cell lysates subjected to anti-myc IP and anti-HA WB to detect 168-APP interaction (upper panel). Protein expressions are shown in the middle and lower panels.

APP-AICD (AID) = target: T3, APP-AICD (AID) (Homo sapiens, UniProt P05067); assay: Yeast two-hybrid assay with quantitative β-galactosidase activity; type: binding; details: yeast AH109 co-transfected with pGBKT7-AID; ONPG substrate
T3 construct: The intracellular end of human APP was amplified, i.e., AID, was amplified; expressed in transfected cells; host or cells: yeast AH109
From the text: The interaction of AICD-Ga14 activation domain (AD) with 168(264-304) fragment-DNA binding domain (DBD) activates GAL4-driven beta-galactosidase expression in yeast.
The intracellular end of human APP was amplified, i.e., AID, was amplified. In order to completely expose AID, 5 amino acids of Aβ and […] (SEQ ID NO:9) were extended in front of AID. The PCR product was recovered and purified. It was then inserted into protein expression vector pGBKT7 for identification by means of sequencing. The successfully constructed vector is named pGBKT7-AID. Positively identified pGBKT7-AID was transferred into yeast AH109, and then cultured on a SD/-Trp plate. […]
Screening and Identification of Positive Clones: Yeast expression vector pGBKT7 contained the autocrine gene of Trp (tryptophan) and the DNA binding domain of GAL4. pACT2 contained the autocrine gene of Leu (leucine) and the DNA activation structure domain. […] The results were compared and analyzed against information available in GenBank.
Quantitative Analysis of β-galactosidase Activity: Yeast co-transfected positive clones grown on the plate were picked and cultured further in a SD/Leu/-Trp liquid culture medium at 30° C. overnight. […] The solution was centrifuged and the supernatant was taken to measure its absorbance at 420 nm to calculate its β-galactosidase activity. […]

Molecule	caspase 3 cleavage for activation upon apoptotic treatment (N2a cells)	interaction with APP in IP-WB (APP)	cytochrome c release from mitochondria (293T cells)	conversion of Notch to NICD (Notch)	sAPPα ([1]; overexpression of 168, conditional media)	Aβ generation ([1]; overexpression of 168, different dosage, 2 days)	apoptosis (239T cells)	168-induced cell apoptosis in APP/APLP2 DKO cells compared with APP WT cells (mouse fibroblast cells)	Aβ40 generation [2]	mitochondrial membrane potential [3]	interaction with APP-AICD(C99) in cells (APP-AICD(C99); HA-168 deletion mutants and myc-tagged C99 co-transfected into 293T cells)	minimal domain of 168 to interact with AICD (APP-AICD(C99); IP-WB)	intensity of interaction with AID (bait protein) by β-galactosidase activity (APP-AICD (AID))
CN[C@@H]1C[C@H]2O[C@@](C)([C@@H]1OC)n1c3ccccc3c3c4c(c5c6ccccc6n2c5c31)C(=O)NC4 [staurosporine]	cleaved												
B1		still detected											
B2		interacts	induces cytochrome c release	does not affect	slightly increases	inhibits Aβ generation in a dose-dependent manner	induces apoptosis	dramatically less	reduces Aβ40 generation in a dose-dependent manner	decrease	interacts	118-264AA	fairly intense
